How the values were obtained:
[1] = test system: NLGN3 protein in SU-pcGBM2 cells; assay: Western blot of NLGN3 protein expression in glioma cells; format: cell-based, human; settings: 50 nM NLGN3 for 12 hours, then 24 hours recovery in fresh media
Procedure: A) Signaling through the PI3K pathway increases in response to NLGN3. Representative Western blot illustrating increased phosphorylation of AKT in response to various concentrations of NLGN3 ranging from 0-50 nM. p-AKT is shown in top panel; total AKT is shown in the bottom panel. B) Quantification of the increased fold change of pAKT/AKT ratio in response to NLGN3 at various doses (oneway ANOVA, F=17.99, P<001; data shown as mean±SEM; *P<0.05, **P<0.01, ***P<0.001 by Tukey's post-hoc tests to further examine pairwise comparisons). Fold change is normalized to blank media (aCSF). (C) Fos mRNA expression increases after 1 hour exposure to […] 50 nM NLGN3 (data shown as mean±SEM; **P<0.01 by unpaired two-tailed Student's t-test). D) NLGN3 mRNA expression increases after 12 hour exposure to 50 nM NLGN3 vs. vehicle in SU-[…] cells. Data shown as mean±SEM; *P<0.05 by unpaired two-tailed Student's t-test. […]
Endogenous protein levels were determined using Western blot analysis. […]
Briefly, in FIG. 5, panel A, cells were lysed after 1-hour exposure to 0 nM, 5 nM, 10 nM, or 50 nM recombinant NLGN3 (Origene Technologies, Rockville, Md.), using RIPA buffer and protease inhibitors. […] Protein concentration in the lysate was determined using a Bradford assay. […] Proteins were visualized using Clarity ECL Western Substrate (BioRad, Hercules, Calif.) and quantified using ImageJ.

[2] = test system: mTOR (phospho-4E-BP1 T37/46); assay: Western blot of phospho-4E-BP1 as reporter of mTOR activity; format: cell-based, human; settings: 50 nM NLGN3 vs aCSF
Procedure: Top panel, 4E-P1^T37/46; bottom panel, total 4E-BP1. B) Quantification of p4E-BP1T37/46/4E-BP1 ratio fold change after NLGN3 exposure normalized to aCSF control (unpaired two-tailed Student's t-test). C) 50 nM NLGN3-induced increase in SU-pcGBM2 proliferation index (EdU assay) is blocked by inhibition of PI3K by BKM120 (100 nM). […] All experiments performed in n=3 biological replicates. Data shown as mean±SEM. (See also FIG. 34, Table in FIG. 18.)
Endogenous protein levels were determined using Western blot analysis. Briefly, after various treatments, 400,000 SU-pcGBM2 cells were lysed and loaded onto SDS-PAGE gels. Proteins were separated with gel electrophoresis and transferred to a PVDF membrane. Proteins were then probed for various antibodies as described in extended experimental procedures.

SU-pcGBM2 cells = assay: Annexin V FACS analysis of cell death; format: cell-based; settings: 50 nM NLGN3, 24 h vs PBS
Procedure: After 24-hr exposure to PBS or NLGN3 (50 nM), SU-pcGBM2 cells were stained with DAPI (X-axis) and Annexin V-FITC (Y-axis) to detect cell death by FACS analysis, performed in biological duplicate. Live Annexin V^−/DAPI^− cells shown in lower left quadrant of contour plots; pre-apoptotic Annexin V^+/DAPI^− cells, left upper quadrant; dead Annexin V^+/DAPI^+ cells, right upper quadrant.
SU-pcGBM2 cells were cultured in minimal growth media together with 50 nM NLGN-3 recombinant protein (dissolved in PBS) or PBS only as a vehicle control in duplicate for 24 hrs. Cells were harvested for FACS analyses of apoptosis using Annexin V-FITC Apoptosis Detection Kit II (556570, BD Biosciences) according to the manufacturer's instruction with slight modifications. DAPI was used in combination with Annexin V-FITC to stain the apoptotic cell population instead of PI. The stained cells were analyzed using a BD Fortessa FACS machine (BD Biosciences). The data were analyzed using Flowjo software (FLOWJO, LLC).

B1: NLGN3: Recombinant full-length neuroligin-3 (Origene), tested as glioma mitogen (protein, listed as Mus musculus)
chain: MWLQPSLSLSPTPTVGRSLCLTLGFLSLVLRASTQAPAPTVNTHFGKLRGARVPLPSEILGPVDQYLGVPYAAPPIGEKRFLPPEPPPSWSGIRNATHFPPVCPQNIHTAVPEVMLPVWFTANLDIVATYIQEPNEDCLYLNVYVPTEDGSGAKKQGEDLADNDGDEDEDIRDSGAKPVMVYIHGGSYMEGTGNMIDGSVLASYGNVIVITLNYRVGVLGFLSTGDQAAKGNYGLLDQIQALRWVSENIAFFGGDPRRITVFGSGIGASCVSLLTLSHHSEGLFQRAIIQSGSALSSWAVNYQPVKYTSLLADKVGCNVLDTVDMVDCLRQKSAKELVEQDIQPARYHVAFGPVIDGDVIPDDPEILMEQGEFLNYDIMLGVNQGEGLKFVEGVVDPEDGVSGTDFDYSVSNFVDNLYGYPEGKDTLRETIKFMYTDWADRDNPETRRKTLVALFTDHQWVEPSVVTADLHARYGSPTYFYAFYHHCQSLMKPAWSDAAHGDEVPYVFGVPMVGPTDLFPCNFSKNDVMLSAVVMTYWTNFAKTGDPNKPVPQDTKFIHTKANRFEEVAWSKYNPRDQLYLHIGLKPRVRDHYRATKVAFWKHLVPHLYNLHDMFHYTSTTTKVPPPDTTHSSHITRRPNGKTWSTKRPAISPAYSNENAPGSWNGDQDAGPLLVENPRDYSTELSVTIAVGASLLFLNVLAFAALYYRKDKRRQEPLRQPSPQRGTGAPELGTAPEEELAALQLGPTHHECEAGPPHDTLRLTALPDYTLTLRRSPDDIPLMTPNTITMIPNSLVGLQTLHPYNTFAAGFNSTGLPHSHSTTRV
- NLGN3 protein expression [1]: Protein expression of NLGN3 following glioma cell NLGN3 exposure was confirmed
- phospho-4E-BP1 T37/46 relative to total 4E-BP1 [2]: increase in phospho-4E-BP1^T37/46 relative to total 4E-BP1
- cell death by Annexin V FACS analysis (SU-pcGBM2 cells): no change in cell death
